How the values were obtained:
[1] = molecular target: TmTsaD;TmTsaB (Thermotoga maritima;Thermotoga maritima, UniProt Q9WXZ2;Q9WZX7 1-327;1-206, |); assay: EMSA; TsaD2B2 tetramer; EMSA: 1 uM 6-FAM-tRNA, 0-100 uM protein, 2% agarose, 20 mM Tris-HCl/50 mM glycine pH 8.5 running buffer (loading buffer for native gels 20 mM Tris-HCl pH 7.5, 300 mM NaCl, 25% glycerol); MST: 10 nM tRNA, 20 mM PBS pH 7.5, 300 mM NaCl, 0.05% Tween 20, 25 C; settings: protein: recombinant;recombinant; tags: ;; chain copies: 2;2; label: 5' 6-FAM; tRNA cloverleaf
[2] = molecular target: TmTsaD;TmTsaB dimer-interface mutant (Thermotoga maritima;Thermotoga maritima, UniProt Q9WXZ2;Q9WZX7 1-327;1-206, |E20A;D21A;L22A;E24A;S26A;Y27A;T28A;E30A;K31A); assay: EMSA; TsaDB dimer; EMSA: 1 uM 6-FAM-tRNA, 0-100 uM protein, 2% agarose, 20 mM Tris-HCl/50 mM glycine pH 8.5 running buffer (loading buffer for native gels 20 mM Tris-HCl pH 7.5, 300 mM NaCl, 25% glycerol); MST: 10 nM tRNA, 20 mM PBS pH 7.5, 300 mM NaCl, 0.05% Tween 20, 25 C; settings: protein: recombinant;recombinant; tags: ;; copies: 1;1; label: 5' 6-FAM; tRNA cloverleaf
[3] = molecular target: AaTsaD del34-38;AaTsaB (Aquifex aeolicus;Aquifex aeolicus, UniProt O66986;O66494 1-335;1-200, del34-38|); assay: EMSA; tighter than TsaD2B2; EMSA: 1 uM 6-FAM-tRNA, 0-100 uM protein, 2% agarose, 20 mM Tris-HCl/50 mM glycine pH 8.5 running buffer (loading buffer for native gels 20 mM Tris-HCl pH 7.5, 300 mM NaCl, 25% glycerol); MST: 10 nM tRNA, 20 mM PBS pH 7.5, 300 mM NaCl, 0.05% Tween 20, 25 C; settings: protein: recombinant;recombinant; tags: ;C-terminal 6His; chain copies: 2;2; label: 5' 6-FAM; tRNA cloverleaf
[4] = molecular target: AaTsaD;AaTsaBmut (Aquifex aeolicus;Aquifex aeolicus, UniProt O66986;O66494 1-335;1-200+=WEKKKRG, |internal_change); assay: EMSA; TsaD2Bmut2 tetramer; EMSA: 1 uM 6-FAM-tRNA, 0-100 uM protein, 2% agarose, 20 mM Tris-HCl/50 mM glycine pH 8.5 running buffer (loading buffer for native gels 20 mM Tris-HCl pH 7.5, 300 mM NaCl, 25% glycerol); MST: 10 nM tRNA, 20 mM PBS pH 7.5, 300 mM NaCl, 0.05% Tween 20, 25 C; settings: protein: recombinant;recombinant; tags: ;C-terminal 6His; chain copies: 2;2; label: 5' 6-FAM; tRNA cloverleaf
[5] = molecular target: AaTsaD;AaTsaB (Aquifex aeolicus;Aquifex aeolicus, UniProt O66986;O66494 1-335;1-200, |); assay: MST; not saturated at 100 uM; stronger than AaTsaDB; EMSA: 1 uM 6-FAM-tRNA, 0-100 uM protein, 2% agarose, 20 mM Tris-HCl/50 mM glycine pH 8.5 running buffer (loading buffer for native gels 20 mM Tris-HCl pH 7.5, 300 mM NaCl, 25% glycerol); MST: 10 nM tRNA, 20 mM PBS pH 7.5, 300 mM NaCl, 0.05% Tween 20, 25 C; settings: protein: recombinant;recombinant; tags: ;C-terminal 6His; chain copies: 2;2; label: 5' 6-FAM; tRNA cloverleaf
[6] = molecular target: EcTsaD;EcTsaB (Escherichia coli;Escherichia coli, UniProt P05852;P76256 1-337;1-231, |); assay: EMSA; TsaDB dimer; EMSA: 1 uM 6-FAM-tRNA, 0-100 uM protein, 2% agarose, 20 mM Tris-HCl/50 mM glycine pH 8.5 running buffer (loading buffer for native gels 20 mM Tris-HCl pH 7.5, 300 mM NaCl, 25% glycerol); MST: 10 nM tRNA, 20 mM PBS pH 7.5, 300 mM NaCl, 0.05% Tween 20, 25 C; settings: protein: recombinant;recombinant; tags: ;; copies: 1;1; tRNA cloverleaf
EcTsaD;EcTsaB, sequence (P05852 whole entry, chain 1 of 2): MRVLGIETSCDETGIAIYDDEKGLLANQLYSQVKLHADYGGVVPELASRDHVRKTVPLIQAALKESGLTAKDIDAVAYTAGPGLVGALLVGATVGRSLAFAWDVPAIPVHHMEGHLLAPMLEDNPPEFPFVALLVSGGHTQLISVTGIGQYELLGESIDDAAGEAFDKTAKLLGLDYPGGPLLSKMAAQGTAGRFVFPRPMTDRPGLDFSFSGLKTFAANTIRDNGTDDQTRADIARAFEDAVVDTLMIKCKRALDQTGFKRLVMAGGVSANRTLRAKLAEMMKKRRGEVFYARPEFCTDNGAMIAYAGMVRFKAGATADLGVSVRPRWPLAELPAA
EcTsaD;EcTsaB, sequence (P76256 whole entry, chain 2 of 2): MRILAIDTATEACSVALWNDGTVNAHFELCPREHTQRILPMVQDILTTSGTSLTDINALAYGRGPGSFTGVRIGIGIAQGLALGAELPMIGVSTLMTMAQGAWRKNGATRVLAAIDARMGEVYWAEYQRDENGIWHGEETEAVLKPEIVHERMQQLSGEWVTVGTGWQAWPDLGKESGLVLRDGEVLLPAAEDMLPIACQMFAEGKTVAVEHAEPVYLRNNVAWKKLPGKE

AaTsaD del34-38;AaTsaB, sequence (O66986 other isoform, or with tags, fused parts or gaps del34-38|, chain 1 of 2): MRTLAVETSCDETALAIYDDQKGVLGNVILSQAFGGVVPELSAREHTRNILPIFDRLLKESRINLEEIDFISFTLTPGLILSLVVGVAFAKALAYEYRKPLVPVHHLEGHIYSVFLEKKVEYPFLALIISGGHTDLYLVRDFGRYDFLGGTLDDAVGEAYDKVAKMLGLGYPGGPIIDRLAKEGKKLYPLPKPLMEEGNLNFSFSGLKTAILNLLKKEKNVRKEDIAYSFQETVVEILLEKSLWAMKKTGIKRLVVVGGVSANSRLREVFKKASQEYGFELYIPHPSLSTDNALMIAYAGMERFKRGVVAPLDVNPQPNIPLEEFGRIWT
AaTsaD del34-38;AaTsaB, sequence (chain, as listed by the source del34-38|, chain 2 of 2): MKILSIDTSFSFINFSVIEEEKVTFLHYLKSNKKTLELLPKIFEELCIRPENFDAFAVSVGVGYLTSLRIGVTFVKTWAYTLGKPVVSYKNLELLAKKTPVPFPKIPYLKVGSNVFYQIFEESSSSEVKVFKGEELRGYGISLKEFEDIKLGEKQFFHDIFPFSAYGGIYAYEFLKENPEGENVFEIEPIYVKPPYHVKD
TmTsaD;TmTsaB, sequence (Q9WXZ2 whole entry, chain 1 of 2): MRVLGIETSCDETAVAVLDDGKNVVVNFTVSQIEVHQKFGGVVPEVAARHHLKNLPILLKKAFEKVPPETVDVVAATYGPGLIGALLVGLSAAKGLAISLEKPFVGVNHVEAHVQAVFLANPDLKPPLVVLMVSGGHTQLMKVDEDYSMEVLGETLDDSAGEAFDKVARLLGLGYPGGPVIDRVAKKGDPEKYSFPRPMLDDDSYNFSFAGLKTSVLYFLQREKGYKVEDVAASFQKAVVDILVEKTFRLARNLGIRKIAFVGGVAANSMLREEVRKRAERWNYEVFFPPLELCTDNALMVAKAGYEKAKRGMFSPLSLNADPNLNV
TmTsaD;TmTsaB, sequence (Q9WZX7 whole entry, chain 2 of 2): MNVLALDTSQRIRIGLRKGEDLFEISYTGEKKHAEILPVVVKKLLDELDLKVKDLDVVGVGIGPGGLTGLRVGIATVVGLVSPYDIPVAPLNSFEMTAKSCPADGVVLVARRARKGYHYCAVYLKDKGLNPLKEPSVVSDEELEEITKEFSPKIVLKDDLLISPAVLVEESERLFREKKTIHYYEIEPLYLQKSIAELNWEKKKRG
TmTsaD;TmTsaB dimer-interface mutant, sequence (Q9WXZ2 whole entry, stated change not applied, chain 1 of 2): as the sequence (Q9WXZ2 whole entry, chain 1 of 2) above
TmTsaD;TmTsaB dimer-interface mutant, sequence (Q9WZX7 whole entry E20A/D21A/L22A/E24A/S26A/Y27A/T28A/E30A/K31A, chain 2 of 2): as the sequence (Q9WZX7 whole entry, chain 2 of 2) above, with E20A, D21A, L22A, E24A, S26A, Y27A, T28A, E30A, K31A counted along it
AaTsaD;AaTsaBmut, sequence (O66986 whole entry, change not shown, chain 1 of 2): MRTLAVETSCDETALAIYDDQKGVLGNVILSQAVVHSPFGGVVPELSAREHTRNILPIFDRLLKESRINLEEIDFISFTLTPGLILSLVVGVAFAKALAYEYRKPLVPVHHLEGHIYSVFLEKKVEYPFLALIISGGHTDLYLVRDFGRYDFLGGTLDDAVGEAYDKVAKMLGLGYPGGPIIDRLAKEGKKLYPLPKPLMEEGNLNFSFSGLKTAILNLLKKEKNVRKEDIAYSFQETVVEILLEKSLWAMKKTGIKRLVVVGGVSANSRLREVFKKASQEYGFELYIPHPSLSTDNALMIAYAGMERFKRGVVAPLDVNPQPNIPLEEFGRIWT
AaTsaD;AaTsaBmut, sequence (chain, as listed by the source |, chain 2 of 2): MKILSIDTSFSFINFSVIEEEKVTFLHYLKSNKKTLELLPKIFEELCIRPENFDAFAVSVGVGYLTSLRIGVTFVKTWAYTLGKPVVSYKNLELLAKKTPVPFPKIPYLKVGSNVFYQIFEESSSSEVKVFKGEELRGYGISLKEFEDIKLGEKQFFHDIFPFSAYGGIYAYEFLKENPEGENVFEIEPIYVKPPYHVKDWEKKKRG
AaTsaD;AaTsaB, sequence (O66986 whole entry, chain 1 of 2): as the sequence (O66986 whole entry, change not shown, chain 1 of 2) above
AaTsaD;AaTsaB, sequence (chain, as listed by the source |, chain 2 of 2): as the sequence (chain, as listed by the source del34-38|, chain 2 of 2) above

B1: T. maritima tRNALysUUU (structured_RNA)
RNA: GACCCGGUAGCUCAGCAGGCAGAGCACCUGACUUUUAAUCAGGGGGUCGUGGGUUCGAAUCCCACCCGGGUCACCA
Q: Which results are given for B1?
A: Kd [1]: 1200 nM; Kd [2]: 1720 nM

B2: A. aeolicus tRNALysUUU (structured_RNA)
RNA: GAGCCGGUAGCUCAGUUGGUAGAGCAACGGCCUUUUAAGCCGUGGGUCGCGGGUUCGAGUCCCGCCCGGCUCACCA
Q: Does B2 bind [3]?
A: Result: binds

Q: What about the Kd [4] of the same binder?
A: Its Kd is about 1160 nM.

Q: Does B2 bind [5]?
A: Result: binds

B3: E. coli tRNALysUUU (structured_RNA)
RNA: GGGUCGUUAGCUCAGUUGGUAGAGCAGUUGACUUUUAAUCAAUUGGUCGCAGGUUCGAAUCCUGCACGACCCACCA
Q: Does B3 bind [6]?
A: Result: no binding

Source: publication PMC11648230, “Structure–function analysis of tRNA t6A-catalysis, assembly, and thermostability of Aquifex aeolicus TsaD2B2 tetramer in complex with TsaE”
